{"source": "paper PMC6884138", "about": "(ACS synthetic biology, 2019)", "key": {"SEC": {"molecular_target": "the molecule itself", "assay": "SEC"}, "crystal structure": {"molecular_target": "the molecule itself", "assay": "crystal structure"}}}
{"protein": "BMC-H^2 (synthetic tandem-domain BMC shell protein), released from 6xHis-SUMO-BMC-H^2 by ULP protease (other, Haliangium ochraceum) MADALGMIEVRGFVGMVEAADAMVKAAKVELIGYEKTGGGYVTAVVRGDVAAVKAATEAGQRAAERVGEVVAVHVIPRPHVNVDAALPLGRTPGMDKSALDAPVVADAWEEDTESADALGMIEVRGFVGMVEAADAMVKAAKVELIGYEKTGGGYVTAVVRGDVAAVKAATEAGQRAAERVGEVVAVHVIPRPHVNVDAALPLGRTPGMDKSA", "values": [{"measurement": "stoichiometry N", "setting": "SEC", "result": 3}, {"measurement": "stoichiometry N", "setting": "crystal structure", "result": 90}]}
